# In patent publication US20210246166A1 (Bayer, published 2021):
# Bridge positions count the residues as written; N and C are the ends. Square brackets hold non-standard residues; d marks the D form. Ends that are not written are not given here. Oic = O=C(O)[C@@H]1C[C@@H]2CCCC[C@@H]2N1; tBuAla = CC(C)(C)C[C@H](N)C(=O)O; 2Pal = N[C@@H](Cc1ccccn1)C(=O)O; PEG4 = NCCOCCOCCOCCOCCC(=O)O; Pen = CC(C)(S)[C@H](N)C(=O)O; NMeC = CN[C@@H](CS)C(=O)O; NMeA = CN[C@@H](C)C(=O)O; Orn = NCCC[C@H](N)C(=O)O; Sar = CNCC(=O)O
# B1: aIC+SRSLP-(Oic)-I-(Pen)+IP-NH2 (peptide)
# peptide: [dA]ICSRSLP[Oic]I[Pen]IP-NH2
# modifications: disulfide 3-11; N-terminus assumed
# SMILES: CC[C@H](C)[C@H](NC(=O)[C@@H](C)N)C(=O)N[C@H]1CSSC(C)(C)[C@@H](C(=O)N[C@H](C(=O)N2CCC[C@H]2C(N)=O)[C@@H](C)CC)NC(=O)[C@H]([C@@H](C)CC)NC(=O)[C@@H]2C[C@@H]3CCCC[C@@H]3N2C(=O)[C@@H]2CCCN2C(=O)[C@H](CC(C)C)NC(=O)[C@H](CO)NC(=O)[C@H](CCCNC(=N)N)NC(=O)[C@H](CO)NC1=O
# B2: ((N-Me)G)-IC+SRSLP-(Oic)-I-(Pen)+IPE-NH2 (peptide)
# peptide: [Sar]ICSRSLP[Oic]I[Pen]IPE-NH2
# modifications: disulfide 3-11; N-terminus assumed
# SMILES: CC[C@H](C)[C@H](NC(=O)CNC)C(=O)N[C@H]1CSSC(C)(C)[C@@H](C(=O)N[C@H](C(=O)N2CCC[C@H]2C(=O)N[C@@H](CCC(=O)O)C(N)=O)[C@@H](C)CC)NC(=O)[C@H]([C@@H](C)CC)NC(=O)[C@@H]2C[C@@H]3CCCC[C@@H]3N2C(=O)[C@@H]2CCCN2C(=O)[C@H](CC(C)C)NC(=O)[C@H](CO)NC(=O)[C@H](CCCNC(=N)N)NC(=O)[C@H](CO)NC1=O
# B3: ((N-Me)G)-IC+SRS-((tBu)A)-PPI-(Pen)+IP-(PEG3(16atoms))-NH2 (peptide)
# peptide: [Sar]ICSRS[tBuAla]PPI[Pen]IP[PEG4]-NH2
# modifications: disulfide 3-11; N-terminus assumed
# SMILES: CC[C@H](C)[C@H](NC(=O)CNC)C(=O)N[C@H]1CSSC(C)(C)[C@@H](C(=O)N[C@H](C(=O)N2CCC[C@H]2C(=O)NCCOCCOCCOCCOCCC(N)=O)[C@@H](C)CC)NC(=O)[C@H]([C@@H](C)CC)NC(=O)[C@@H]2CCCN2C(=O)[C@@H]2CCCN2C(=O)[C@H](CC(C)(C)C)NC(=O)[C@H](CO)NC(=O)[C@H](CCCNC(=N)N)NC(=O)[C@H](CO)NC1=O
# B4: AIC+SRS-((tBu)A)-P-(Oic)-I-((N-Me)C)+I-OH (peptide)
# peptide: AICSRS[tBuAla]P[Oic]I[NMeC]I-OH
# modifications: disulfide 3-11; N-terminus assumed
# SMILES: CC[C@H](C)[C@H](NC(=O)[C@@H]1CSSC[C@H](NC(=O)[C@@H](NC(=O)[C@H](C)N)[C@@H](C)CC)C(=O)N[C@@H](CO)C(=O)N[C@@H](CCCNC(=N)N)C(=O)N[C@@H](CO)C(=O)N[C@@H](CC(C)(C)C)C(=O)N2CCC[C@H]2C(=O)N2[C@@H](C[C@@H]3CCCC[C@@H]32)C(=O)N[C@@H]([C@@H](C)CC)C(=O)N1C)C(=O)O
# B5: (2-Pal)-IC+SRS-((tBu)A)-PPI-(Pen)+IPD-NH2 (peptide)
# peptide: [2Pal]ICSRS[tBuAla]PPI[Pen]IPD-NH2
# modifications: disulfide 3-11; N-terminus assumed
# SMILES: CC[C@H](C)[C@H](NC(=O)[C@@H](N)Cc1ccccn1)C(=O)N[C@H]1CSSC(C)(C)[C@@H](C(=O)N[C@H](C(=O)N2CCC[C@H]2C(=O)N[C@@H](CC(=O)O)C(N)=O)[C@@H](C)CC)NC(=O)[C@H]([C@@H](C)CC)NC(=O)[C@@H]2CCCN2C(=O)[C@@H]2CCCN2C(=O)[C@H](CC(C)(C)C)NC(=O)[C@H](CO)NC(=O)[C@H](CCCNC(=N)N)NC(=O)[C@H](CO)NC1=O
# B6: ((N-Me)A)-IC+SRSLP-(Oic)-I-(Pen)+IPQ-OH (peptide)
# peptide: [NMeA]ICSRSLP[Oic]I[Pen]IPQ-OH
# modifications: disulfide 3-11; N-terminus assumed
# SMILES: CC[C@H](C)[C@H](NC(=O)[C@H](C)NC)C(=O)N[C@H]1CSSC(C)(C)[C@@H](C(=O)N[C@H](C(=O)N2CCC[C@H]2C(=O)N[C@@H](CCC(N)=O)C(=O)O)[C@@H](C)CC)NC(=O)[C@H]([C@@H](C)CC)NC(=O)[C@@H]2C[C@@H]3CCCC[C@@H]3N2C(=O)[C@@H]2CCCN2C(=O)[C@H](CC(C)C)NC(=O)[C@H](CO)NC(=O)[C@H](CCCNC(=N)N)NC(=O)[C@H](CO)NC1=O
# B7: FIC+SRS-((tBu)A)-PPI-((N-Me)C)+I-NH2 (peptide)
# peptide: FICSRS[tBuAla]PPI[NMeC]I-NH2
# modifications: disulfide 3-11; N-terminus assumed
# SMILES: CC[C@H](C)[C@H](NC(=O)[C@@H]1CSSC[C@H](NC(=O)[C@@H](NC(=O)[C@@H](N)Cc2ccccc2)[C@@H](C)CC)C(=O)N[C@@H](CO)C(=O)N[C@@H](CCCNC(=N)N)C(=O)N[C@@H](CO)C(=O)N[C@@H](CC(C)(C)C)C(=O)N2CCC[C@H]2C(=O)N2CCC[C@H]2C(=O)N[C@@H]([C@@H](C)CC)C(=O)N1C)C(N)=O
# B8: YIC+SRS-((tBu)A)-PPI-((N-Me)C)+I-NH2 (peptide)
# peptide: YICSRS[tBuAla]PPI[NMeC]I-NH2
# modifications: disulfide 3-11; N-terminus assumed
# SMILES: CC[C@H](C)[C@H](NC(=O)[C@@H]1CSSC[C@H](NC(=O)[C@@H](NC(=O)[C@@H](N)Cc2ccc(O)cc2)[C@@H](C)CC)C(=O)N[C@@H](CO)C(=O)N[C@@H](CCCNC(=N)N)C(=O)N[C@@H](CO)C(=O)N[C@@H](CC(C)(C)C)C(=O)N2CCC[C@H]2C(=O)N2CCC[C@H]2C(=O)N[C@@H]([C@@H](C)CC)C(=O)N1C)C(N)=O
# B9: AIC+SRSLP-(Oic)-I-((N-Me)C)+IPD-NH2 (peptide)
# peptide: AICSRSLP[Oic]I[NMeC]IPD-NH2
# modifications: disulfide 3-11; N-terminus assumed
# SMILES: CC[C@H](C)[C@H](NC(=O)[C@H](C)N)C(=O)N[C@H]1CSSC[C@@H](C(=O)N[C@H](C(=O)N2CCC[C@H]2C(=O)N[C@@H](CC(=O)O)C(N)=O)[C@@H](C)CC)N(C)C(=O)[C@H]([C@@H](C)CC)NC(=O)[C@@H]2C[C@@H]3CCCC[C@@H]3N2C(=O)[C@@H]2CCCN2C(=O)[C@H](CC(C)C)NC(=O)[C@H](CO)NC(=O)[C@H](CCCNC(=N)N)NC(=O)[C@H](CO)NC1=O
# B10: (Orn)-IC+SRS-((tBu)A)-PPIC+I-NH2 (peptide)
# peptide: [Orn]ICSRS[tBuAla]PPICI-NH2
# modifications: disulfide 3-11; N-terminus assumed
# SMILES: CC[C@H](C)[C@H](NC(=O)[C@@H]1CSSC[C@H](NC(=O)[C@@H](NC(=O)[C@@H](N)CCCN)[C@@H](C)CC)C(=O)N[C@@H](CO)C(=O)N[C@@H](CCCNC(=N)N)C(=O)N[C@@H](CO)C(=O)N[C@@H](CC(C)(C)C)C(=O)N2CCC[C@H]2C(=O)N2CCC[C@H]2C(=O)N[C@@H]([C@@H](C)CC)C(=O)N1)C(N)=O
# B11: ((N-Me)G)-IC+SRSLP-(Oic)-I-(Pen)+I-OH (peptide)
# peptide: [Sar]ICSRSLP[Oic]I[Pen]I-OH
# modifications: disulfide 3-11; N-terminus assumed
# SMILES: CC[C@H](C)[C@H](NC(=O)[C@H]1NC(=O)[C@H]([C@@H](C)CC)NC(=O)[C@@H]2C[C@@H]3CCCC[C@@H]3N2C(=O)[C@@H]2CCCN2C(=O)[C@H](CC(C)C)NC(=O)[C@H](CO)NC(=O)[C@H](CCCNC(=N)N)NC(=O)[C@H](CO)NC(=O)[C@@H](NC(=O)[C@@H](NC(=O)CNC)[C@@H](C)CC)CSSC1(C)C)C(=O)O
# B12: aIC+SRSLP-(Oic)-I-(Pen)+IPQ-OH (peptide)
# peptide: [dA]ICSRSLP[Oic]I[Pen]IPQ-OH
# modifications: disulfide 3-11; N-terminus assumed
# SMILES: CC[C@H](C)[C@H](NC(=O)[C@@H](C)N)C(=O)N[C@H]1CSSC(C)(C)[C@@H](C(=O)N[C@H](C(=O)N2CCC[C@H]2C(=O)N[C@@H](CCC(N)=O)C(=O)O)[C@@H](C)CC)NC(=O)[C@H]([C@@H](C)CC)NC(=O)[C@@H]2C[C@@H]3CCCC[C@@H]3N2C(=O)[C@@H]2CCCN2C(=O)[C@H](CC(C)C)NC(=O)[C@H](CO)NC(=O)[C@H](CCCNC(=N)N)NC(=O)[C@H](CO)NC1=O
# B13: aIC+SRSLP-(Oic)-I-(Pen)+IP-OH (peptide)
# peptide: [dA]ICSRSLP[Oic]I[Pen]IP-OH
# modifications: disulfide 3-11; N-terminus assumed
# SMILES: CC[C@H](C)[C@H](NC(=O)[C@@H](C)N)C(=O)N[C@H]1CSSC(C)(C)[C@@H](C(=O)N[C@H](C(=O)N2CCC[C@H]2C(=O)O)[C@@H](C)CC)NC(=O)[C@H]([C@@H](C)CC)NC(=O)[C@@H]2C[C@@H]3CCCC[C@@H]3N2C(=O)[C@@H]2CCCN2C(=O)[C@H](CC(C)C)NC(=O)[C@H](CO)NC(=O)[C@H](CCCNC(=N)N)NC(=O)[C@H](CO)NC1=O
# Molecular target: T1, Recombinant human MASP1 enzyme (fragment corresponding to amino acids 297-699, C-terminal His Tag) (human, UniProt P48740 297-699)
# T1 sequence: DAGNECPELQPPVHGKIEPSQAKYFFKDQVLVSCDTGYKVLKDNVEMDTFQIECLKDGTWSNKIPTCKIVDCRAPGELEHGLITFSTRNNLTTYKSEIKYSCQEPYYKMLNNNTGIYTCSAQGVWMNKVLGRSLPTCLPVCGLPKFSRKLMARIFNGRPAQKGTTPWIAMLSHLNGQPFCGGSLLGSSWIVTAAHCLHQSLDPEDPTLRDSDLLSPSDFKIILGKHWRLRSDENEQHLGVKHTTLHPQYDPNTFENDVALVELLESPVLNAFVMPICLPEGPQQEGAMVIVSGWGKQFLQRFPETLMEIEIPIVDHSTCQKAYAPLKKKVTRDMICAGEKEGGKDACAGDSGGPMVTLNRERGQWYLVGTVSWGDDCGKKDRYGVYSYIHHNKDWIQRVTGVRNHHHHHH
# Test: cell-based or functional assay
row,Binder,human MASP1 IC50 [nM]
1,B1,4.3
2,B2,4.3
3,B3,4.35
4,"AICSRS[tBuAla]P[(2S,3aS,6aS)‑Octahydrocyclopenta(b)pyrrole‑2‑carboxylic acid]I[NMeC]IPD-NH2 (disulfide 3-11)",4.4
5,B4,4.4
6,B5,4.4
7,B6,4.4
8,B7,4.5
9,B8,4.5
10,"AICSRS[tBuAla]PP[(2S)‑2‑(Amino)‑2‑((1S,3S)-3-hydroxycyclohexyl)acetic acid][NMeC]IPD-NH2 (disulfide 3-11) [AIC+SRS-((tBu)A)-PP-((2S)-2-(Amino)-2-[(1S,3S)-3-hydroxycyclohexyl]acetic acid)-((N-Me)C)+IPD-NH2]",4.7
11,[(2S)‑2((Amino)-2-(tetrahydro-2H-pyran-4-yl))acetic acid]ICSRSLP[Oic]ICI-OH (disulfide 3-11) [((2S)-2[(Amino)-2-(tetrahydro-2H-pyran-4-yl)]acetic acid)-IC+SRSLP-(Oic)-IC+I-OH],4.7
12,B9,4.8
13,B10,4.8
14,B11,4.9
15,B12,4.9
16,B13,4.9

# Molecular target: Recombinant human MASP2 enzyme (fragment corresponding to amino acids 297-686, C-terminal His Tag) (human, UniProt O00187 297-686)
# Test: cell-based or functional assay
# Recombinant human MASP2 enzyme (fragment corresponding to amino acids 297-686, C-terminal His Tag), sequence (O00187 other isoform, or with tags, fused parts or gaps limits assumed): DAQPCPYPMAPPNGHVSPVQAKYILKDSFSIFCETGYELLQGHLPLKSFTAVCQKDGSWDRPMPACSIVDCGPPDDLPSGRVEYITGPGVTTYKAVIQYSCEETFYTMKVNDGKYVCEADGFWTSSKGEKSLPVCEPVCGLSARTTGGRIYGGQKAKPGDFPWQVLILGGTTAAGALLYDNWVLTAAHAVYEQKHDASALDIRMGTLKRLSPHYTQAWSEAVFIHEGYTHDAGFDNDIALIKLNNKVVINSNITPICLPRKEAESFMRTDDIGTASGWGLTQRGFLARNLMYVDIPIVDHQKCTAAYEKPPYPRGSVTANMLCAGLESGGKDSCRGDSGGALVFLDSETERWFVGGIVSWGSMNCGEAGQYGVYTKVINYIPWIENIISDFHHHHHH
row,Binder,human MASP2 IC50 [nM]
1,B1,59
2,B2,200
3,B3,65.5
4,"AICSRS[tBuAla]P[(2S,3aS,6aS)‑Octahydrocyclopenta(b)pyrrole‑2‑carboxylic acid]I[NMeC]IPD-NH2 (disulfide 3-11)",240
5,B4,850
6,B5,68
7,B6,170
8,B7,170
9,B8,68
10,"AICSRS[tBuAla]PP[(2S)‑2‑(Amino)‑2‑((1S,3S)-3-hydroxycyclohexyl)acetic acid][NMeC]IPD-NH2 (disulfide 3-11) [AIC+SRS-((tBu)A)-PP-((2S)-2-(Amino)-2-[(1S,3S)-3-hydroxycyclohexyl]acetic acid)-((N-Me)C)+IPD-NH2]",1100
11,[(2S)‑2((Amino)-2-(tetrahydro-2H-pyran-4-yl))acetic acid]ICSRSLP[Oic]ICI-OH (disulfide 3-11) [((2S)-2[(Amino)-2-(tetrahydro-2H-pyran-4-yl)]acetic acid)-IC+SRSLP-(Oic)-IC+I-OH],200
12,B9,245
13,B10,170
14,B11,550
15,B12,140
16,B13,200
